Reference: article PMC3857619 (2013)

Target: recombinant PTB (Homo sapiens (Human), UniProt P26599)
Assay: in vitro co-IP (anti-PTB) with western blot

Sequence of recombinant PTB (P26599 whole entry): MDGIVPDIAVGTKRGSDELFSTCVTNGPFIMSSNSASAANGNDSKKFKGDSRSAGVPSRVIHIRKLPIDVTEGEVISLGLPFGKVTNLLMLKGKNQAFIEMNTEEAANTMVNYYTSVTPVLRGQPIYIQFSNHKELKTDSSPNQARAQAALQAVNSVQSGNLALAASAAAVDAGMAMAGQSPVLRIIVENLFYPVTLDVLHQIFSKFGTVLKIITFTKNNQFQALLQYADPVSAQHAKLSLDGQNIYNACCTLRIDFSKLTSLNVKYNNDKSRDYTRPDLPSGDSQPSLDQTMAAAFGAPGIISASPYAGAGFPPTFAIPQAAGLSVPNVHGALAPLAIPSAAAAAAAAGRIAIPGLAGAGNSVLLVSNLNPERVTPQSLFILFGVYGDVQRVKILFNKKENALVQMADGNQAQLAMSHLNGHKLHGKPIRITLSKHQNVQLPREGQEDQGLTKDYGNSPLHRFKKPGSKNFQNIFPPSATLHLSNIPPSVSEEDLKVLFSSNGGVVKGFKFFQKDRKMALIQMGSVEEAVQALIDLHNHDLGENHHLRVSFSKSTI

binding result: binds
B1: recombinant hnRNPA1 (protein)
chain: MSKSESPKEPEQLRKLFIGGLSFETTDESLRSHFEQWGTLTDCVVMRDPNTKRSRGFGFVTYATVEEVDAAMNARPHKVDGRVVEPKRAVSREDSQRPGAHLTVKKIFVGGIKEDTEEHHLRDYFEQYGKIEVIEIMTDRGSGKKRGFAFVTFDDHDSVDKIVIQKYHTVNGHNCEVRKALSKQEMASASSSQRGRSGSGNFGGGRGGGFGGNDNFGRGGNFSGRGGFGGSRGGGGYGGSGDGYNGFGNDGGYGGGGPGYSGGSRGYGSGGQGYGNQGSGYGGSGSYDSYNNGGGGGFGGGSGSNFGGGGSYNDFGNYNNQSSNFGPMKGGNFGGRSSGPYGGGGQYFAKPRNQGGYGGSSSSSSYGSGRRF
